No end group written: not given here.
Columns and labels:
TGFβ1 = target: T1, TGFβ1 (Homo sapiens, UniProt P01137); assay type: cell-based; conditions: TGFβ1 200 pg/ml; for inhibitory activity of TGFβ1 (in words): peptide 200 μg/ml, MV-1-Lu cells; for Bioassay (% inhibition): inhibition of TGFβ1 activity, growth of MV-1-Lu cells, peptide concentration 200 μg/ml
T1 construct: the mature TGFβ1 is released by another cut; purchased R&D Systems Europe Ltd., Abingdon, UK
Method: A line derived from mink pulmonary epithelium, MV-1-Lu, was used (CCL-64, American Type Cell Culture, Virginia, USA). The cells were grown in 162 cm^2 culture flasks (Costar Corporation, Cambridge, USA) in a stove at 37° C. and 5% CO2, until subconfluence was attained. A complete medium was used: RPMI 1640 with L-glutamine (GibcoBRL, Life Technologies Ltd., Paisley, Scotland) supplemented with 5% of foetal calf serum (FCS, Biological Industries, Kibbutz Beit Haemek, Israel), 10 mM HEPES (1M HEPES Buffer, Bio-Whittaker, Verviers, Belgium) and antibiotics (100 U/ml penicillin and 100 μ/ml streptomycin).
The MV-1-Lu cells grown as indicated above were removed from the bottom of the culture flasks using 5 ml of trypsin-EDTA (Biological Industries, Kibbutz Beit Haemek, Israel), resuspended in complete medium and centrifuged at 1500 rev/min for 8 minutes. After centrifugation the cells were resuspended in complete medium to a concentration of 50,000 cells/ml. For conducting the test, 10 ml of the cell suspension were taken and dispensed in 96-well, flat-bottom culture plates (Costar Corporation, Cambridge, USA), adding 100 μl/well, and were incubated overnight at 37° C. and 5% CO2, which permits adhesion of the cells to the bottom of the wells. […] The final concentration of FCS in the well was 2.5%. After 24 hours of incubation, 1 μCi of tritiated thymidine was added per well (25 Ci/mmol [methyl-^3H]-thymidine, Amersham Life Science, Buckinghamshire, UK) with incubation for a further 12 hours (Grubeck-Loebenstein B. et al. (1989) J. Clin. Invest. 83:764-770; Brennan F M et al. (1990) Clin. Exp. Immunol. 81:278-285).
At the end of the incubation periods the cells were removed from the bottom of the wells with trypsin-EDTA and were collected using a manual harvester (Titertek cell harvester, Skatron Instruments Inc., Sterling, USA) which ruptures the cells, collecting the DNA in nitrocellulose filters (Filter MAT 11731, Skatron Instruments Inc., Sterling, USA) where it is fixed. The filters were placed individually in 5 ml polypropylene tubes to which 4 ml of scintillation fluid was added (Biogreen-11, Reactivos Scharlau S. A., Barcelona, Spain). The activity of each tube was quantified for 90 seconds in a β LKB scintillation counter (Beta plate system, LKB, Uppsala, Sweden).
TGFβ1 is a cytokine that is able to inhibit the growth in vitro of the MV-1-Lu cell line (Grubeck-Loebenstein B. et al. (1989) J. Clin. Invest. 83:764-770; Brennan F M et al. (1990) Clin. Exp. Immunol. 81:278-285), therefore this line was used for testing the blocking effect of peptides on TGFβ1. After different combinations of media, cells and thymidine, we studied the effect of different concentrations of TGFβ1 on incorporation of [methyl-^3H]thymidine by MV-1-Lu cells in culture, for determining the most suitable conditions for the test. […]
(§1) The synthetic peptides that are potentially inhibitors of TGFβ1 activity, selected as indicated above in the section: selection of the peptides to be synthesized (both those derived from proteins that bind to TGFβ1 itself) were tested using the MV-1-Lu cell line. The selected peptides are soluble in buffered RPMI medium. The peptides were dissolved in buffered RPMI medium, free from foetal calf serum, and the following was used.
The peptides belonging to the sequence of the receptor, or complementary to the peaks of hydrophilicity of TGFβ1, were incubated for 30 minutes in the presence of this cytokine and were then combined with the cell culture. The peptides derived from the sequence of TGFβ1 were added to the cell culture prior to addition of TGFβ1, since they interact with the receptors of the cell surface. These incubations were effected in 100 μl of the same medium as was used for adding the cells. The active peptides permitted cell growth to a greater or lesser degree depending on its ability to inhibit TGFβ1.

TGFβ1 cell receptors = tested on: TGFβ1 cell receptors; set-up: species or system human; conditions: inhibition of binding of TGFβ1 to its cell receptors, MV-1-Lu cells; peptide concentration 420 μg/ml
Description: An immunofluorescence kit was used for this (Fluorokine rh TGFβ-biotin, R&D Systems Europe Ltd., Abingdon, UK). This test is based on the capacity of biotinylated TGFβ1 to bind to the cell receptors, in a specific manner, and the subsequent interaction of the biotin with fluorescein-labelled avidin, so that the signal intensity will depend on the quantity of TGFβ1 bound to the cell receptors.
The MV-1-Lu cells grown in 162 cm^2 flasks were removed using solution 1 (described previously) and were resuspended in physiological saline for centrifugation at 500×g for 5 minutes. After centrifugation, the cells were resuspended again in physiological saline at a concentration of 4×10^6 cells/ml. 25 μl of the cell suspension was added to 12×75 mm borosilicate tubes, to which was added the peptide to be tested in 40 μl of RPMI 1640 medium, giving a final concentration of 0.42 μg/μl and 10 μl of biotinylated TGFβ1. […]
At the end of the incubation period, 10 μl of fluorescein-labelled avidin was added, incubating for 30 minutes at 4° C. in darkness, after which 2 ml of a washing solution (RDF1) was added, followed by centrifugation at 500×g for 6 minutes. […] This method permits measurement of the fluorescence emitted by each cell when a laser beam is incident upon it, by means of a computer program (Lisys™ II, Becton Dickinson Immunocytometry Systems, California, USA).
Once the fields had been delimited, the percentage of cells located in each of them was calculated. […]
Peptides derived from previous syntheses, both those that were synthesized from the sequence of TGFβ1 and those from the type III receptor, were used for measuring, by flow cytometry, their capacity to inhibit the binding of TGFβ1 to the cell receptors. In these tests the cells are incubated with the peptide before adding TGFβ1-biotin, which will be detected using avidin-FITC (Material and Methods). Then the fluorescence emitted by the avidin-FITC is measured: this will be directly proportional to the quantity of TGFβ1 bound to the cells and inversely proportional to the activity of the peptide.

[1] = Solubility of the peptides in the test medium; assay type: physicochemical
Method: as §1
The effect of the concentration of peptide P12 on inhibition of the activity of TGFβ1 was investigated.
The effect of the concentration of peptide P54 on inhibition of the activity of TGFβ1 was investigated.

T1 sequence (P01137 279-390): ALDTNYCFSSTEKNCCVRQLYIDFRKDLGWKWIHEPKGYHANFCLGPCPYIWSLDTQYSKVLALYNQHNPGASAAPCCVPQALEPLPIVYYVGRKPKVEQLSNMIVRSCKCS

Substance | inhibitory activity of TGFβ1 (in words) (TGFβ1) | Bioassay (% inhibition) (TGFβ1) [%] | Cytometry (% inhibition) (TGFβ1 cell receptors) [%] | solubility in the test medium [1] | dependence of the inhibitory activity on the peptide concentration (TGFβ1; dose-response test) | inhibitory activity of nominal concentrations of peptide, before and after filtration (TGFβ1; dose-response test, filtered vs unfiltered stock)
CDIHVLKQDGFSVLFTKCD (cysteine pairing not given here) [P149] | not found to be active |  |  |  |  | 
TSLDATMIWTMM [P54] | capable of inhibiting the activity of TGFβ1 almost completely | 97 | 82.3 | low solubility | inhibit the activity of TGFβ1 in a manner that depends on the dose used | no measurable inhibitory activity in the filtrate
HANFCLGPCPYIWSL (cysteine pairing not given here) [P11] |  | 40 | 86 |  |  | 
CysValAlaValTrpArgLysAsnAspGluAsnIleThrLeuGluThrValCys (CVAVWRKNDENITLETVC; Synthetic peptide from rat TGB beta 1 type III receptor, position 84-101) [P146] | not found to be active |  |  |  |  | 
LYNQHNPGASAAPCC (cysteine pairing not given here) [P18] |  | 18.2 | 6.5 |  |  | 
SNPYSAFQVDIIVDI [P106, SerAsnProTyrSerAlaPheGlnValAspIleIleValAspIle] | had also demonstrated activity |  |  |  |  | 

Source: patent US7528226B2, “TGFβ1-inhibitor peptides” (Rojecto de Biomedicina Cima S.L., priority 1998, dated 2009)
